Assay results: US20210388087A1 (Chugai, published 2021)

T1: Human CD3eg linker (human)
T1 construct: Single chain: epsilon and gamma subunits of human CD3 joined by a 29-mer linker, Flag-tag at the C-terminus; also called recombinant human CD3
T1 chain: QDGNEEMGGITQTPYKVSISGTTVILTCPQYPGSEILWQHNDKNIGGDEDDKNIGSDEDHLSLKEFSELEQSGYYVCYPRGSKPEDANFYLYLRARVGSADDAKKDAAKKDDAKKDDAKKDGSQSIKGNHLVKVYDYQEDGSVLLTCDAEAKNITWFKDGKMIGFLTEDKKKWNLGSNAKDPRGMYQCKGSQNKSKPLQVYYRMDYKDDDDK


Target: T1, Human CD3eg linker
Assay: Biacore SPR, vs template H183/L072

Binder | fold change of affinity [fold]
H183/L072 VH F29S (antibody, name in Kabat numbering, V domains shown) VH: QVQLVESGGGLVQPGRSLRLSCAASGFTSSNAWMHWVRQAPGKGLEWVAQIKDKGNAYAAYYAPSVKGRFTISRDDSKNSIYLQMNSLKTEDTAVYYCHYVHYASASTVLPAFGVDAWGQGTTVTVSS VL: DIVMTQSPLSLPVTPGEPASISCQASQELVHMNRNTYLHWYQQKPGQAPRLLIYKVSNRFPGVPDRFSGSGSGTDFTLKISRVEAEDVGVYYCAQGTSVPFTFGQGTKLEIK | 0.1
H183/L072 VH G26F (antibody, name in Kabat numbering, V domains shown) VH: QVQLVESGGGLVQPGRSLRLSCAASFFTFSNAWMHWVRQAPGKGLEWVAQIKDKGNAYAAYYAPSVKGRFTISRDDSKNSIYLQMNSLKTEDTAVYYCHYVHYASASTVLPAFGVDAWGQGTTVTVSS VL: DIVMTQSPLSLPVTPGEPASISCQASQELVHMNRNTYLHWYQQKPGQAPRLLIYKVSNRFPGVPDRFSGSGSGTDFTLKISRVEAEDVGVYYCAQGTSVPFTFGQGTKLEIK | 0.4
H183/L072 VH G26H (antibody, name in Kabat numbering, V domains shown) VH: QVQLVESGGGLVQPGRSLRLSCAASHFTFSNAWMHWVRQAPGKGLEWVAQIKDKGNAYAAYYAPSVKGRFTISRDDSKNSIYLQMNSLKTEDTAVYYCHYVHYASASTVLPAFGVDAWGQGTTVTVSS VL: DIVMTQSPLSLPVTPGEPASISCQASQELVHMNRNTYLHWYQQKPGQAPRLLIYKVSNRFPGVPDRFSGSGSGTDFTLKISRVEAEDVGVYYCAQGTSVPFTFGQGTKLEIK | 0
H183/L072 VH F29W (antibody, name in Kabat numbering, V domains shown) VH: QVQLVESGGGLVQPGRSLRLSCAASGFTWSNAWMHWVRQAPGKGLEWVAQIKDKGNAYAAYYAPSVKGRFTISRDDSKNSIYLQMNSLKTEDTAVYYCHYVHYASASTVLPAFGVDAWGQGTTVTVSS VL: DIVMTQSPLSLPVTPGEPASISCQASQELVHMNRNTYLHWYQQKPGQAPRLLIYKVSNRFPGVPDRFSGSGSGTDFTLKISRVEAEDVGVYYCAQGTSVPFTFGQGTKLEIK | 0.5
H183/L072 VH G26L (antibody, name in Kabat numbering, V domains shown) VH: QVQLVESGGGLVQPGRSLRLSCAASLFTFSNAWMHWVRQAPGKGLEWVAQIKDKGNAYAAYYAPSVKGRFTISRDDSKNSIYLQMNSLKTEDTAVYYCHYVHYASASTVLPAFGVDAWGQGTTVTVSS VL: DIVMTQSPLSLPVTPGEPASISCQASQELVHMNRNTYLHWYQQKPGQAPRLLIYKVSNRFPGVPDRFSGSGSGTDFTLKISRVEAEDVGVYYCAQGTSVPFTFGQGTKLEIK | 0.6
H183/L072 VH G26I (antibody, name in Kabat numbering, V domains shown) VH: QVQLVESGGGLVQPGRSLRLSCAASIFTFSNAWMHWVRQAPGKGLEWVAQIKDKGNAYAAYYAPSVKGRFTISRDDSKNSIYLQMNSLKTEDTAVYYCHYVHYASASTVLPAFGVDAWGQGTTVTVSS VL: DIVMTQSPLSLPVTPGEPASISCQASQELVHMNRNTYLHWYQQKPGQAPRLLIYKVSNRFPGVPDRFSGSGSGTDFTLKISRVEAEDVGVYYCAQGTSVPFTFGQGTKLEIK | 0.5
H183/L072 VH G26M (antibody, name in Kabat numbering, V domains shown) VH: QVQLVESGGGLVQPGRSLRLSCAASMFTFSNAWMHWVRQAPGKGLEWVAQIKDKGNAYAAYYAPSVKGRFTISRDDSKNSIYLQMNSLKTEDTAVYYCHYVHYASASTVLPAFGVDAWGQGTTVTVSS VL: DIVMTQSPLSLPVTPGEPASISCQASQELVHMNRNTYLHWYQQKPGQAPRLLIYKVSNRFPGVPDRFSGSGSGTDFTLKISRVEAEDVGVYYCAQGTSVPFTFGQGTKLEIK | 0.6
H183/L072 VH F29Y (antibody, name in Kabat numbering, V domains shown) VH: QVQLVESGGGLVQPGRSLRLSCAASGFTYSNAWMHWVRQAPGKGLEWVAQIKDKGNAYAAYYAPSVKGRFTISRDDSKNSIYLQMNSLKTEDTAVYYCHYVHYASASTVLPAFGVDAWGQGTTVTVSS VL: DIVMTQSPLSLPVTPGEPASISCQASQELVHMNRNTYLHWYQQKPGQAPRLLIYKVSNRFPGVPDRFSGSGSGTDFTLKISRVEAEDVGVYYCAQGTSVPFTFGQGTKLEIK | 0.4
H183/L072 VH G26E (antibody, name in Kabat numbering, V domains shown) VH: QVQLVESGGGLVQPGRSLRLSCAASEFTFSNAWMHWVRQAPGKGLEWVAQIKDKGNAYAAYYAPSVKGRFTISRDDSKNSIYLQMNSLKTEDTAVYYCHYVHYASASTVLPAFGVDAWGQGTTVTVSS VL: DIVMTQSPLSLPVTPGEPASISCQASQELVHMNRNTYLHWYQQKPGQAPRLLIYKVSNRFPGVPDRFSGSGSGTDFTLKISRVEAEDVGVYYCAQGTSVPFTFGQGTKLEIK | 0.6
H183/L072 VH F100gP (antibody, name in Kabat numbering, V domains shown) VH: QVQLVESGGGLVQPGRSLRLSCAASGFTFSNAWMHWVRQAPGKGLEWVAQIKDKGNAYAAYYAPSVKGRFTISRDDSKNSIYLQMNSLKTEDTAVYYCHYVHYASASTVLPAPGVDAWGQGTTVTVSS VL: DIVMTQSPLSLPVTPGEPASISCQASQELVHMNRNTYLHWYQQKPGQAPRLLIYKVSNRFPGVPDRFSGSGSGTDFTLKISRVEAEDVGVYYCAQGTSVPFTFGQGTKLEIK | 1.8
H183/L072 VH G26D (antibody, name in Kabat numbering, V domains shown) VH: QVQLVESGGGLVQPGRSLRLSCAASDFTFSNAWMHWVRQAPGKGLEWVAQIKDKGNAYAAYYAPSVKGRFTISRDDSKNSIYLQMNSLKTEDTAVYYCHYVHYASASTVLPAFGVDAWGQGTTVTVSS VL: DIVMTQSPLSLPVTPGEPASISCQASQELVHMNRNTYLHWYQQKPGQAPRLLIYKVSNRFPGVPDRFSGSGSGTDFTLKISRVEAEDVGVYYCAQGTSVPFTFGQGTKLEIK | 0.2
H183/L072 VH G26K (antibody, name in Kabat numbering, V domains shown) VH: QVQLVESGGGLVQPGRSLRLSCAASKFTFSNAWMHWVRQAPGKGLEWVAQIKDKGNAYAAYYAPSVKGRFTISRDDSKNSIYLQMNSLKTEDTAVYYCHYVHYASASTVLPAFGVDAWGQGTTVTVSS VL: DIVMTQSPLSLPVTPGEPASISCQASQELVHMNRNTYLHWYQQKPGQAPRLLIYKVSNRFPGVPDRFSGSGSGTDFTLKISRVEAEDVGVYYCAQGTSVPFTFGQGTKLEIK | 0.6
H183/L072 VH F100gM (antibody, name in Kabat numbering, V domains shown) VH: QVQLVESGGGLVQPGRSLRLSCAASGFTFSNAWMHWVRQAPGKGLEWVAQIKDKGNAYAAYYAPSVKGRFTISRDDSKNSIYLQMNSLKTEDTAVYYCHYVHYASASTVLPAMGVDAWGQGTTVTVSS VL: DIVMTQSPLSLPVTPGEPASISCQASQELVHMNRNTYLHWYQQKPGQAPRLLIYKVSNRFPGVPDRFSGSGSGTDFTLKISRVEAEDVGVYYCAQGTSVPFTFGQGTKLEIK | 1.4
H183/L072 VH G26N (antibody, name in Kabat numbering, V domains shown) VH: QVQLVESGGGLVQPGRSLRLSCAASNFTFSNAWMHWVRQAPGKGLEWVAQIKDKGNAYAAYYAPSVKGRFTISRDDSKNSIYLQMNSLKTEDTAVYYCHYVHYASASTVLPAFGVDAWGQGTTVTVSS VL: DIVMTQSPLSLPVTPGEPASISCQASQELVHMNRNTYLHWYQQKPGQAPRLLIYKVSNRFPGVPDRFSGSGSGTDFTLKISRVEAEDVGVYYCAQGTSVPFTFGQGTKLEIK | 0.4
H183/L072 VH F100gL (antibody, name in Kabat numbering, V domains shown) VH: QVQLVESGGGLVQPGRSLRLSCAASGFTFSNAWMHWVRQAPGKGLEWVAQIKDKGNAYAAYYAPSVKGRFTISRDDSKNSIYLQMNSLKTEDTAVYYCHYVHYASASTVLPALGVDAWGQGTTVTVSS VL: DIVMTQSPLSLPVTPGEPASISCQASQELVHMNRNTYLHWYQQKPGQAPRLLIYKVSNRFPGVPDRFSGSGSGTDFTLKISRVEAEDVGVYYCAQGTSVPFTFGQGTKLEIK | 1.3
H183/L072 VH G26P (antibody, name in Kabat numbering, V domains shown) VH: QVQLVESGGGLVQPGRSLRLSCAASPFTFSNAWMHWVRQAPGKGLEWVAQIKDKGNAYAAYYAPSVKGRFTISRDDSKNSIYLQMNSLKTEDTAVYYCHYVHYASASTVLPAFGVDAWGQGTTVTVSS VL: DIVMTQSPLSLPVTPGEPASISCQASQELVHMNRNTYLHWYQQKPGQAPRLLIYKVSNRFPGVPDRFSGSGSGTDFTLKISRVEAEDVGVYYCAQGTSVPFTFGQGTKLEIK | 0.1
H183/L072 VH F29T (antibody, name in Kabat numbering, V domains shown) VH: QVQLVESGGGLVQPGRSLRLSCAASGFTTSNAWMHWVRQAPGKGLEWVAQIKDKGNAYAAYYAPSVKGRFTISRDDSKNSIYLQMNSLKTEDTAVYYCHYVHYASASTVLPAFGVDAWGQGTTVTVSS VL: DIVMTQSPLSLPVTPGEPASISCQASQELVHMNRNTYLHWYQQKPGQAPRLLIYKVSNRFPGVPDRFSGSGSGTDFTLKISRVEAEDVGVYYCAQGTSVPFTFGQGTKLEIK | 0.2
H183/L072 VH F29V (antibody, name in Kabat numbering, V domains shown) VH: QVQLVESGGGLVQPGRSLRLSCAASGFTVSNAWMHWVRQAPGKGLEWVAQIKDKGNAYAAYYAPSVKGRFTISRDDSKNSIYLQMNSLKTEDTAVYYCHYVHYASASTVLPAFGVDAWGQGTTVTVSS VL: DIVMTQSPLSLPVTPGEPASISCQASQELVHMNRNTYLHWYQQKPGQAPRLLIYKVSNRFPGVPDRFSGSGSGTDFTLKISRVEAEDVGVYYCAQGTSVPFTFGQGTKLEIK | 0
H183/L072 VH F100gA (antibody, name in Kabat numbering, V domains shown) VH: QVQLVESGGGLVQPGRSLRLSCAASGFTFSNAWMHWVRQAPGKGLEWVAQIKDKGNAYAAYYAPSVKGRFTISRDDSKNSIYLQMNSLKTEDTAVYYCHYVHYASASTVLPAAGVDAWGQGTTVTVSS VL: DIVMTQSPLSLPVTPGEPASISCQASQELVHMNRNTYLHWYQQKPGQAPRLLIYKVSNRFPGVPDRFSGSGSGTDFTLKISRVEAEDVGVYYCAQGTSVPFTFGQGTKLEIK | 1.7
H183/L072 VH F100gI (antibody, name in Kabat numbering, V domains shown) VH: QVQLVESGGGLVQPGRSLRLSCAASGFTFSNAWMHWVRQAPGKGLEWVAQIKDKGNAYAAYYAPSVKGRFTISRDDSKNSIYLQMNSLKTEDTAVYYCHYVHYASASTVLPAIGVDAWGQGTTVTVSS VL: DIVMTQSPLSLPVTPGEPASISCQASQELVHMNRNTYLHWYQQKPGQAPRLLIYKVSNRFPGVPDRFSGSGSGTDFTLKISRVEAEDVGVYYCAQGTSVPFTFGQGTKLEIK | 1.2
